Results from paper PMC13500710.
Like-named read-outs stand apart in the source and are kept apart here.

T1: ORC1 WHD (Homo sapiens, UniProt Q13415 783-861)
T1 sequence: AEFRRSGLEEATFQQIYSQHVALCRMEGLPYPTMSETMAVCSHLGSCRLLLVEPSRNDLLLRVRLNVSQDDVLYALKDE

T2: ORC1 BAH domain (Homo sapiens, UniProt Q13415 1-200)
T2 sequence: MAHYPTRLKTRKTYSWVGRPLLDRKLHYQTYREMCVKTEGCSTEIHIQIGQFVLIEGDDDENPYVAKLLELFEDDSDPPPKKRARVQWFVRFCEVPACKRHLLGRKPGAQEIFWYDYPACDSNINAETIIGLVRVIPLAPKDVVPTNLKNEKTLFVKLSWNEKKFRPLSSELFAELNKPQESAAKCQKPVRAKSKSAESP

T3: ORC1 mutant (EYYE) (Homo sapiens, UniProt Q13415 1-861, R297E;S450Y;T593Y;R846E)
T3 sequence: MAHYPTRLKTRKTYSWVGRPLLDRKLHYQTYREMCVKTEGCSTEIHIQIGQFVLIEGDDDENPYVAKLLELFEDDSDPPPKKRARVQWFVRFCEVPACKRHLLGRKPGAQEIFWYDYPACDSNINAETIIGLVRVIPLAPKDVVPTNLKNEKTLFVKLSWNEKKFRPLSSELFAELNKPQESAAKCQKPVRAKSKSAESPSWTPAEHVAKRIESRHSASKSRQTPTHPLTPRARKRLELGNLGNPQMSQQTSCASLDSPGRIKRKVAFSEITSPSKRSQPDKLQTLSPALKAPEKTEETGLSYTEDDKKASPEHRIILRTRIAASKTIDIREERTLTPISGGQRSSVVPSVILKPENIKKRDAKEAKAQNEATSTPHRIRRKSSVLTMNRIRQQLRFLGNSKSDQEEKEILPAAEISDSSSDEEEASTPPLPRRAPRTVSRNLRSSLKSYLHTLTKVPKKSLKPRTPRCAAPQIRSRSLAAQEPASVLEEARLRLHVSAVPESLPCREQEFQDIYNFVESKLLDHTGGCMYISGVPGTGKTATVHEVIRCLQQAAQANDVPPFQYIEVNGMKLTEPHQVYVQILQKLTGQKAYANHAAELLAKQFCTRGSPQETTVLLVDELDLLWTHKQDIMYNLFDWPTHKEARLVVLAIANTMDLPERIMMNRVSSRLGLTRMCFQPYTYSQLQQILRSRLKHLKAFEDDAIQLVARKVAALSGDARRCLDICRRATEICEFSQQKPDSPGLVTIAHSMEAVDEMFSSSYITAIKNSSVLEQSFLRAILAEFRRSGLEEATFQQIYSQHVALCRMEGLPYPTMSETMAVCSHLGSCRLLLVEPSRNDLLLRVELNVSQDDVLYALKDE

T4: ORC1 full length (Homo sapiens, UniProt Q13415 1-861)
T4 sequence: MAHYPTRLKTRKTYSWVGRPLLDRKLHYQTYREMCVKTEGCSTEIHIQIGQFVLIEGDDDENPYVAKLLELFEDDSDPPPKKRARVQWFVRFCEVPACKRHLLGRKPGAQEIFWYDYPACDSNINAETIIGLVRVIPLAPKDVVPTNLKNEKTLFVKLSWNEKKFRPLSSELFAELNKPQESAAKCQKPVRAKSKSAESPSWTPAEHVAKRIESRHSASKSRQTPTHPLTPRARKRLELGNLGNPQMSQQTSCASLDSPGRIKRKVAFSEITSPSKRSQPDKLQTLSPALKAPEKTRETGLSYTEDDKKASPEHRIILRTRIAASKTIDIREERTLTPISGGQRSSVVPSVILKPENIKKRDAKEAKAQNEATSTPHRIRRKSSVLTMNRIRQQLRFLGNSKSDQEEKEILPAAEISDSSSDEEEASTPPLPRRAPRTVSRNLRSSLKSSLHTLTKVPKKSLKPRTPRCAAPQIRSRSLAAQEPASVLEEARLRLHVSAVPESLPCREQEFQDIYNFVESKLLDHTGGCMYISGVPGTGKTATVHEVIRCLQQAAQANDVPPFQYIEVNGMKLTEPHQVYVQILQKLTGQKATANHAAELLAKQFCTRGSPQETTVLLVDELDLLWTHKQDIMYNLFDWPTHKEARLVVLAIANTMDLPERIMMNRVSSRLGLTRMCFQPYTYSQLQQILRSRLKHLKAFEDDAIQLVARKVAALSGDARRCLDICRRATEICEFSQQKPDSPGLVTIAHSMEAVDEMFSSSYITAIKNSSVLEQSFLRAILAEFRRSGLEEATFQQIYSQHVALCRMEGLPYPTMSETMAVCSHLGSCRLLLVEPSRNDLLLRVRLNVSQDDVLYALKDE


Columns and labels:
Assay in all cases: EMSA
[1] = target: T1, ORC1 WHD
[2] = target: T2, ORC1 BAH domain
[3] = target: T3, ORC1 mutant (EYYE)
[4] = target: T4, ORC1 full length
[5] = target: T4, ORC1 full length; remark: listed apart in the source
[6] = target: T4, ORC1 full length; remark: listed apart in the source

Row | Binder | binding result [4] | binding result [5] | also measured
1 | GAGAACGCACUGCGCGCCCACCGCCACGCCACGCGCGUAC (ssRNA) [RM9, biotinylated] |  |  | binding result [1]: no binding; binding result [2]: no binding; binding result [3]: no binding
2 | GTACGCGCGTGGCGTGGCGGTGGGCGCGCAGTGCGTTCTC (ssDNA) [dRM9] | no binding |  | 
3 | GAGCUCCCAAAUCUCUCCAGAUCUGCUAUCUCUCCUUCCU (ssRNA) [MYC2] |  | no binding | 
4 | CAGCCGCCCACUUUUGACAGGCCUGGGCGGGCUUCGCUUA (ssRNA) [MYC1, 32P] | no binding |  | 
5 | CAGCCGCCCACUUUUGACAGGCCUGGGCGGGCUUCGCUUA (ssRNA) [MYC1, biotinylated] |  |  | binding result [6]: no binding
6 | GAUGGGAGGAAACGCUAAAGCCCAAGGUUUCAGAGGUGAU (ssRNA) [MYC3] |  | no binding | 
